Measurements: patent US20170319711A1

Assays:
[1] = target: Human 5T4 antigen on cells (human) (UniProt Q13641); assay: flow cytometry, MDAMB468 cells
[2] = target: Human 5T4 antigen on cells (human) (UniProt Q13641); assay: flow cytometry, PC3mm2 cells
[3] = target: Human 5T4 antigen on cells (human) (UniProt Q13641); assay: flow cytometry, A431 cells

Measured: Mean Fluorescent Intensity

Sequence of Human 5T4 antigen on cells (human) (Q13641 32-420 limits assumed): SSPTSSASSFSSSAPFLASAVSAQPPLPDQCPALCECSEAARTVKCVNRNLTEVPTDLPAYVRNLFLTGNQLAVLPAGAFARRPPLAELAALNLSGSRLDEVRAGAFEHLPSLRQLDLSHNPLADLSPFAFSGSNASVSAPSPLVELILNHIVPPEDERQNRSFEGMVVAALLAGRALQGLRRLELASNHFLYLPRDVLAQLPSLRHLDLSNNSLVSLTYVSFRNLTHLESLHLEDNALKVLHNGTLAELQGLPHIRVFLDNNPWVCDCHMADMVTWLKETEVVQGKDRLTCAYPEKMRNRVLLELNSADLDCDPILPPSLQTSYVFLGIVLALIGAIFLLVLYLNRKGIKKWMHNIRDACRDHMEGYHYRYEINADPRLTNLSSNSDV

IgG control (antibody)
< 100: all assays above
